Here are results for ten molecules from US20210002363A1 (PHANES THERAPEUTICS, published 2021).

Test [1] addresses T1, FOLR1 on SK-OV-3 cells (ATCC HTB-77) (Homo sapiens (Human), UniProt P15328 25-234).
T1 construct: Endogenous FOLR1 of the cell line; also called cells that are known to express FOLR1
As to the kind of experiment: FACS on SK-OV-3 cells; MFI.

The target in test [2] is T2, Recombinant extracellular domain of human FOLR1 (Novoprotein, Cat#: C784) (human, UniProt P15328 25-233, limits assumed).
T2 construct: Bought reagent; also called recombinant FOLR1; immobilized FOLR1 extracellular domain
As to the kind of experiment: ELISA on immobilized FOLR1 extracellular domain; O.D. 450 nm.

For test [3], the target named is T1, FOLR1 on SK-OV-3 cells (ATCC HTB-77). In words: FACS on SK-OV-3 cells; MFI. The source holds these as a separate data set.
Test [4] has the same target. As to the kind of experiment: FACS on SK-OV-3 cells; MFI. This is another data set of the same source.
Test [5] has as its target T2, Recombinant extracellular domain of …. As to the kind of experiment: ELISA on immobilized FOLR1 extracellular domain; O.D. 450 nm. This is another data set of the same source. Background: ELISA stands for enzyme-linked immunosorbent assay.
Test [6] shares this target. The description is as above. This is another data set of the same source.
Test [7] deals with T1, FOLR1 on SK-OV-3 cells (ATCC HTB-77). In words: FACS on SK-OV-3 cells; MFI. The source holds these as a separate data set.
Test [8] shares this target. In words: FACS on SK-OV-3 cells; MFI. This is another data set of the same source.
Test [9] concerns the target T2, Recombinant extracellular domain of …. In words: ELISA on immobilized FOLR1 extracellular domain; O.D. 450 nm. The source holds these as a separate data set.
Test [10] shares this target. Described as above. The source holds these as a separate data set.
Test [11] concerns the target T1, FOLR1 on SK-OV-3 cells (ATCC HTB-77). As to the kind of experiment: FACS on SK-OV-3 cells; MFI. The source holds these as a separate data set.
For test [12] the target is unchanged. As to the kind of experiment: FACS on SK-OV-3 cells; MFI. This is another data set of the same source.
Test [13] deals with T2, Recombinant extracellular domain of …. In words: ELISA on immobilized FOLR1 extracellular domain; O.D. 450 nm. The source holds these as a separate data set.
The target in test [14] is T1, FOLR1 on SK-OV-3 cells (ATCC HTB-77). In words: FACS on SK-OV-3 cells; MFI. This is another data set of the same source.
In test [15] the target is T2, Recombinant extracellular domain of …. In words: ELISA on plate-coated recombinant human FOLR1 extracellular domain; anti-human IgG-HRP; O.D. 450 nm. As to the method:
The Purified chimeric mAbs were tested in an ELISA assay for their ability to bind to immobilized human FOLR1. Recombinant extracellular domain of human FOLR1 (Novoprotein, Cat#: C784) in carbonate coating buffer was coated on a 96-well plate at room temperature for 1 hour. The plate is blocked by 5% BSA in TBST for 1 hour at room temperature. In each well of an individual plate, mAbs at various concentrations were incubated for 1 hour at room temperature. The plate was washed and the binding to FOLR1 was detected by anti-human IgG conjugated to horseradish peroxidase (hIgG-HRP) (ThermoFisher Scientific, Cat#: H10007) with incubation for 1 hour at room temperature. Then after washing, the ELISA was developed using One-step Detection Solution (ThermoFisher Scientific, Cat#: 34028) and measured as the absorbance at 450 nm.

For test [16] the target is unchanged. As to the kind of experiment: SPR (Biacore 8k), mAb captured on protein A chip, recombinant FOLR1 as analyte, 1:1 model. The protocol: The interaction of the chimeric anti-FOLR1 mAbs and FOLR1 was measured by Surface Plasmon Resonance (SPR) (Biacore 8k, GE Healthcare). Briefly, an anti-FOLR1 mAb was immobilized to a protein A sensor chip (GE Healthcare, Cat#: 29-1275-56) in HBS-P buffer (0.01 M HEPES pH 7.4, 0.15 M NaCl, 0.05% v/v Surfactant P20) with an injection flow rate at […]. The recombinant FOLR1 (Novoprotein, Cat#: C784) at variant concentrations was loaded with the flow rate of 30 μL/min in HBS-P buffer. Following antigen loading, the surface was regenerated with 10 mM glycine-HCl (pH 1.5). Sensor grams were fit with a 1:1 binding model using Biacore 8k evaluation software (GE Healthcare).
A general note: SPR reads the build-up and loss of mass on a sensor chip optically.

In test [17] the target is T1, FOLR1 on SK-OV-3 cells (ATCC HTB-77). As to the kind of experiment: FACS on SK-OV-3 cells; Alexa Fluor 488 F(ab')2 goat anti-human IgG Fc; MFI. The protocol:
To assess the binding of the chimeric anti-FOLR1 mAbs to cells that are known to express FOLR1, SK-OV-3 (ATCC® HTB-77™) cells were plated at 80,000 cells per well on a 96-well non-binding U-bottom plate (Greiner Bio-One, Cat#: 650901). In some experiments, 90,000 cells per well were used. The cells were incubated in 50 μL FACS buffer (HBSS with 0.1% BSA and 0.05% sodium azide) containing mAbs at different concentrations on ice for 15 minutes. After wash, cells were incubated in 50 μL FACS buffer containing 3.5 μg/mL F(ab′)2-Goat anti-Human IgG Fc conjugated to Alexa Fluor® 488 (Invitrogen, Cat#: H10120) on ice for 15 minutes in dark and washed again. Cells were analyzed using an Attune NxT flow cytometer. MFI, mean fluorescence intensity.

Test [18] concerns the target T2, Recombinant extracellular domain of …. In words: ELISA on immobilized FOLR1 extracellular domain; O.D. 450 nm. The source holds these as a separate data set.

Residue numbers refer to the chain shown, from its start.

T2 sequence (P15328 25-233 limits assumed): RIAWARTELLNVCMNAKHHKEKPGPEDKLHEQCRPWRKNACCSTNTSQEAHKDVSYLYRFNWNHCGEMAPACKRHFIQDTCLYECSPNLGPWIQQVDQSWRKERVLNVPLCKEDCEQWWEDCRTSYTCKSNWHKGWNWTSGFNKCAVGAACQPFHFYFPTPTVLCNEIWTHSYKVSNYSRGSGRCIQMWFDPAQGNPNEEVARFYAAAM
T1 sequence (P15328 25-234 limits assumed): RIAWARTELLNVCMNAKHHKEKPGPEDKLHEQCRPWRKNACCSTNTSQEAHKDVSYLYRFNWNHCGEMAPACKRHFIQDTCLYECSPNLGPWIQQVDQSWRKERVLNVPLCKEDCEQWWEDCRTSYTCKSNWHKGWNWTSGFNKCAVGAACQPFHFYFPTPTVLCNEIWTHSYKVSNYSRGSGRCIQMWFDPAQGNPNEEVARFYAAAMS

B1: F10-H1L1 (antibody, V domains shown)
VH: EVQLVQSGAEVKKPGSSVKVSCKASGYAFSSSWMNWVRQAPGQGLEWIGRIYPGDGYTHYNGMFKGRASLTADKSTSTGYMELSSLRSEDTAVFFCTRHGDFPYWYFDVWGRGTLVTVSP
VL: DIQMTQSPSTLSASVGDRVTITCRASENIDSYLAWYQQKPGRAPKLLVYAATNLAVGVPSRFSGSGSGTEYTLTISSLQSDDFATYYCQHHYSTPPTFGQGTKLEIK
notes: also called humanized F10 mAb H1L1
For orientation: EC50 (read off the curve) means the concentration needed to bring the measured effect to its halfway point. With B1, the “EC50 (read off the curve)” value in test [1] was approximately 3 nM; in test [2] it was 0.1 to 0.2 nM.

B2: F10-H2L1 (antibody, V domains shown)
VH: B1 VH with P120S
VL: B1 VL
notes: also called humanized F10 mAb H2L1
For the molecule B2, the “EC50 (read off the curve)” value in test [3] was approximately 3 nM.

B3: F10-H1L2 (antibody, V domains shown)
VH: B1 VH
VL: B1 VL with S80P
notes: also called humanized F10 mAb H1L2
Take B3: the concentration giving a half-maximal response (EC50 (read off the curve)) in test [4] was approximately 3 nM; in test [5] it was approximately 0.3 nM.

B4: F5-H1L2 (antibody, V domains shown)
VH: EVQLLESGGGLVQPGGSLRLSCAVSGFTFSNYGMSWVRQAPGKGLEWVATISSGGSYTYYPDSVKGRFTISRDNSKNTLYLQMNSLRAEDTAVYYCSTQGSSGYVGYWGQGTLVTVSS
VL: DIQMTQSPSSVSASVGDRVTITCKASQDITNFIGWYQHKPGKAPKLLISYTSILESGVPSRFSGSGSGTDYTLTISSLQPEDFATYYCLQYYNLWTFGGGTKVEIK
notes: also called humanized F5 mAb H1L2
B4: the half-maximal effective concentration (EC50 (read off the curve)) is 0.2 to 0.3 nM in [6] and approximately 0.9 nM in test [7].

B5: F5-H2L2 (antibody, V domains shown)
VH: B4 VH with L5V
VL: B4 VL
notes: also called humanized F5 mAb H2L2
Regarding B5, the “EC50 (read off the curve)” value was 0.2 to 0.3 nM in test [6] and approximately 0.9 nM in test [7].

B6: F20-H1L2 (antibody, V domains shown)
VH: QVQLVQSGAEVKKPGSSVKVSCKASGYTFASYYLYWVRQAPGQGLEWIGEINPRSGGTNFNEKFKSRATVTVDKSTSTAYMELSSLRSEDTAVYYCSRSGRLRGFYTMDYWGQGTLVTVSS
VL: DIVMTQSPDSLAVSLGERATINCKAGENVGSYVSWYQQKPGQSPKLLIYGASNRYTGVPDRFSGSGSATDFTLTISSLQAEDVAVYYCGQTYRFLTFGQGTKVEIK
notes: also called humanized F20 mAb H1L2
As for B6, the binding result in [8] and in [9] was “binds” throughout.

B7: F20-H2L4 (antibody, V domains shown)
VH: B6 VH with K74A
VL: DIQMTQSPSTLSASVGDRVTITCKAGENVGSYVSWYQQKPGKAPKLLIYGASNRYTGVPARFSGSGSATEFTLTISSLQPEDFATYYCGQTYRFLTFGQGTKVEVK
notes: also called humanized F20 mAb H2L4
B7: the figures for the “EC50 (read off the curve)” value in test [10] and in [11] were approximately 0.2 nM and approximately 3 nM, respectively.

B8: F20-H3L3 (antibody, V domains shown)
VH: B6 VH with R67K, S77N
VL: B7 VL with E81D
notes: also called humanized F20 mAb H3L3
B8: the entries for the “EC50 (read off the curve)” value in test [12] and in [9] were approximately 1 nM and 0.2 to 0.3 nM, respectively.

B9: F17-H1L2 (antibody, V domains shown)
VH: EVQLVETGGGLIQPGGSLRLSCAASGFTFSDFGMHWIRQAPGKGLEWVAYMSYTPGTFHYADTVKDRFTISRDNSKNTLYLQMNSLRAEDTAVYYCARVHVGTVDYWGQGTLVTVSS
VL: EVVLTQSPATLSLSPGERATLSCRASQNINNNLHWFQQKPGQAPRLLIKYASQSISGIPARFSGSGSGTDFTLTISSLETEDFAVYFCQQSNSWPALTFGQGTKVEIK
notes: also called humanized F17 mAb H1L2
Regarding B9, the “EC50 (read off the curve)” value is approximately 0.2 nM in [13] and approximately 0.9 nM in test [14].

B10: chimeric anti-FOLR1 mAb F17 (antibody, V domains shown)
VH: DVQLVESGGGLVQPGGSRKLSCAASGFTFSDFGMHWIRQAPERGLEWVAYMSYTPGTFHYADTVKDRFFISRDNAKNTLFLQMTSLRSDDTAMYYCARVHVGTVDYWGQGTSVTVSS
VL: DVVLTQSPATLSVTPGDSVSLSCRASQNINNNLHWFQQKSHESPRLLIKYASQSISGIPSRFSGSGSGTDFTLSINNVETEDFGIYFCQQSNSWPALTFGTGTKVELK
notes: also called Chimeric mAb F17
As usually defined, the Kd is the equilibrium constant for the complex coming apart. For B10, the half-maximal effective concentration (EC50 (read off the curve)) in [13] is 0.2 to 0.3 nM; in test [15] it was 0.1 to 0.2 nM; in test [17], approximately 0.8 nM; in test [18], 0.2 to 0.3 nM. In addition, in test [16], the Kd amounted to 0.265 nM.
